Measured values as given in the RNAGym collection of RNA variant scans (doi:10.7554/elife.80360).

B1: HDV Ribozyme (parent)
chain: GGCCGGCAUGGUCCCAGCCUCCUCGCUGGCGCCGGCUGGGCAACAUUCCGAGGGGACCGUCCCCUCGGUAAUGGCGAAUGGGACCCA

Variants of: B1
Assay: self-cleavage, relative activity (ratio to wild type); higher = more cleavage; co-transcriptional

**Q.** For GGCCGGCAUGGUCCCAGCCUCCUCGCUGGCGCCGGCUGGGGAACAUUCCGAGGGGACCGUCCCCUCGGUAAUGGCGAAUGUGACCCA [C41G G81U], which self-cleavage is on record?
**A.** 0.166

**Q.** With GGCCGGCAUGGUCCCAGCCUCCUCGCUGGCGCCGGCCGGGCAACAUUCCGAGGGGACCGUCCCCUCGGUAAUGGCGAAUGGUACCCA [U37C G82U] as the variant, how does the self-cleavage read?
**A.** 0.399

**Q.** With GGCCGGCAUGGUCCCAGCCUCCUCGCUGGCGCCGGCUGGGCAACAUUCCGAGGGGAGUGUCCCCUCGGUAAUGGCGAAUGGGACCCA [C57G C58U] as the variant, how does the self-cleavage read?
**A.** 1.07

**Q.** Which self-cleavage does the source give for GGCCGGCAUGGUCCCAGCCUCCUCGCUGGCGCCGGCUGUGCAACAUUCCGAGGCGACCGUCCCCUCGGUAAUGGCGAAUGGGACCCA [G39U G54C] here?
**A.** 0.76

**Q.** With GGCCGGCAUGGUCCCAGCCUCCUCGCUGGCGCCGGCUGUGCAACAUUCCGAGGGGACCGUCCCCUCGGUAAUGGCGAAUGGGACUCA [G39U C85U] as the variant, how does the self-cleavage read?
**A.** 0.674

**Q.** For GGCCGGCAUGGUCCCAGCCACCUCGCUGGCGCCGGGUGGGCAACAUUCCGAGGGGACCGUCCCCUCGGUAAUGGCGAAUGGGACCCA [U20A C36G], which self-cleavage is on record?
**A.** 0.18

**Q.** With GGCCGGCAUGGUCCCAGCGUCCUCGCUGGCGCCGGCUGGGCAACAUUCCGAGGGGACCGUCCCCUCGGUAAUGGCCAAUGGGACCCA [C19G G76C] as the variant, how does the self-cleavage read?
**A.** 0

**Q.** Which self-cleavage does the source give for GGCCGGCAUGGUCCCAGCCUCCUCGCUUGCGCCGGCUGGGCAACAUUCCGAGGGGACCGUCCCCUCGGUAAUGGCGAAUGGGACCCG [G28U A87G] here?
**A.** 0.0817

**Q.** With GGCCGGCAUGGUCCCAGCCUCCUCGCUGGAGCCGGCUGGGCAACAUUCCGAGGGGACCGUCCCCUCGGUAAUGGCGAAUUGGACCCA [C30A G80U] as the variant, how does the self-cleavage read?
**A.** 0.153

**Q.** For AGCCGGCAUGGUCCCAGCGUCCUCGCUGGCGCCGGCUGGGCAACAUUCCGAGGGGACCGUCCCCUCGGUAAUGGCGAAUGGGACCCA [G1A C19G], which self-cleavage is on record?
**A.** 0.0875

**Q.** With GGCCGGCAUGGUCCCAGCCUCCUCGCUGGCGCCUGCUGGGCAACAUUCCGAGGGGACCGUCCCCUCGGAAAUGGCGAAUGGGACCCA [G34U U69A] as the variant, how does the self-cleavage read?
**A.** 0.102

**Q.** For GGCCGGCAUGGUCCUAGCCUCCUCGCUGGCGCCUGCUGGGCAACAUUCCGAGGGGACCGUCCCCUCGGUAAUGGCGAAUGGGACCCA [C15U G34U], which self-cleavage is on record?
**A.** 0.293

**Q.** Which self-cleavage does the source give for GCCCGGCAUGGUCCCAGCCUCUUCGCUGGCGCCGGCUGGGCAACAUUCCGAGGGGACCGUCCCCUCGGUAAUGGCGAAUGGGACCCA [G2C C22U] here?
**A.** 0.0567

**Q.** For GGCCGGCAUGGUCCCAGCCUCCUCGCUGGCGCCGGCUGGGCAACAUUCCGAGGGGACCGUCCCCUCGGUAAUCGCGGAUGGGACCCA [G73C A77G], which self-cleavage is on record?
**A.** 0.44

**Q.** For GGCCGGCAUGGUCCCAGCCUCCUCGCUGGCGCAGGCUGGGCAACAUUUCGAGGGGACCGUCCCCUCGGUAAUGGCGAAUGGGACCCA [C33A C48U], which self-cleavage is on record?
**A.** 0.163

**Q.** Which self-cleavage does the source give for GGCCGGCAUGGUCCCAGCCUCCUCGCUGGCGUCGGCUGGGCAACAUUCCGAGGGGACCGUCCCCUCGGUAAUGGCCAAUGGGACCCA [C32U G76C] here?
**A.** 0.854

**Q.** Which self-cleavage does the source give for GGCCGGCAUGGACCCAGCCUCCUAGCUGGCGCCGGCUGGGCAACAUUCCGAGGGGACCGUCCCCUCGGUAAUGGCGAAUGGGACCCA [U12A C24A] here?
**A.** 0.104

**Q.** With GGCCGGCAUGGACCCAGCCUCCUCGCUGGCGCCGGCUGGGCAACAUUCCGAGGGGAUCGUCCCCUCGGUAAUGGCGAAUGGGACCCA [U12A C57U] as the variant, how does the self-cleavage read?
**A.** 0.246

**Q.** Which self-cleavage does the source give for GGCCGGCAUGGUCCCAGCCUCCUCGCUGACGCCGGCUGGGCAACAUUCCGAGGGGACCGUCCCCUCGGUAAUGGAGAAUGGGACCCA [G29A C75A] here?
**A.** 0.0852

**Q.** For GGGCGGCAUGGUCCCAGCCUCCUCGCUGGCGCCGGCUGGGCAACAUUCCGAGGGGACCGUCCCCUCGGUAAUGGCGAAUGGGACCCG [C3G A87G], which self-cleavage is on record?
**A.** 0.708

**Q.** For GGCCGGCAUGGUCCCAGCCUCAUCGCUGGCGCUGGCUGGGCAACAUUCCGAGGGGACCGUCCCCUCGGUAAUGGCGAAUGGGACCCA [C22A C33U], which self-cleavage is on record?
**A.** 0.191

**Q.** For GGCCGGCAUGGUCCCAGCCCCCUCGCUGGCGCCGGUUGGGCAACAUUCCGAGGGGACCGUCCCCUCGGUAAUGGCGAAUGGGACCCA [U20C C36U], which self-cleavage is on record?
**A.** 0.131

**Q.** With GGCCGCCAUGGUCCCAGCCUCCUCGCUGGCGCCGGCUGGGCAACAUUCCGAGGCGACCGUCCCCUCGGUAAUGGCGAAUGGGACCCA [G6C G54C] as the variant, how does the self-cleavage read?
**A.** 0.604

**Q.** With GGCCGGCAUGCUCCCAGCCUCCUCGCUGGCGCCGGCUGGGCAACAUUCCGAGGGGACCGUCCCCUCGGUAAUAGCGAAUGGGACCCA [G11C G73A] as the variant, how does the self-cleavage read?
**A.** 0.0936

**Q.** For GGCCGGCAUGGUCCCAGCCUCCUCGCUAGCGCCGGCUGGGCAACAUUCCGAGCGGACCGUCCCCUCGGUAAUGGCGAAUGGGACCCA [G28A G53C], which self-cleavage is on record?
**A.** 0.0831

**Q.** With GGCCGGCAUGGUCCCAGCCUCCUCGCUGGCGCCGGCUGGGCAACGAUCCGAGGGGACCGUCCCCUCGGUAAUGGCGAAUGGGACCCA [A45G U46A] as the variant, how does the self-cleavage read?
**A.** 0.806

**Q.** Which self-cleavage does the source give for GGCCGGAAUGGUCCCAGCCUCCUCGCUGGCGCCGGCUGUGCAACAUUCCGAGGGGACCGUCCCCUCGGUAAUGGCGAAUGGGACCCA [C7A G39U] here?
**A.** 0.18

**Q.** Which self-cleavage does the source give for GGCCGGCAUGGUCCCAGCCUCCUCGCUGGCUCCGGCUGGGCAACAUUCCGAGGGGACCGUCCCCUCGGUAAUGGCGACUGGGACCCA [G31U A78C] here?
**A.** 0.0297

**Q.** For GGCCGGCAUGGUCCCAGCCUCCUCGCUGGCGCCGGCUGGGCAACAUUCCGAGGGGCCCGUCCCCUCGGUAAUGGCGAAUGGGACCCG [A56C A87G], which self-cleavage is on record?
**A.** 0.846

**Q.** For GGCCGGCAUGGUCCCAGCCUCGUCGCUUGCGCCGGCUGGGCAACAUUCCGAGGGGACCGUCCCCUCGGUAAUGGCGAAUGGGACCCA [C22G G28U], which self-cleavage is on record?
**A.** 0.0739

**Q.** Which self-cleavage does the source give for GGCCGGCAUGGUCCCAGCCUCCUCGCUGGCGCCGGCUGGGCAACAUUCCGAGGGGACCGUCCCCUCGGUAUUGGCGAAUGGAACCCA [A71U G82A] here?
**A.** 0.365

**Q.** With GGCCGGCAUGGUCCCAGCCUCCUCGCUGGCGCGGGCUGGGCAACAUUCCGAGGGGACCGUCCCCUCGGUAAUGGCGAGUGGGACCCA [C33G A78G] as the variant, how does the self-cleavage read?
**A.** 0
